Reference: patent publication US12564623B2, “Methods and compositions for treating cancer” (The University of Chicago, priority 2017, dated 2026)
“Also recorded” adds a separate entry of the source.

Assays:
tumors = test: Tumor apoptosis markers and CD95 staining after intratumoral delivery; format: in vivo, mice
Description: (FIG. 16A) MDA-MB-231, A549, or MEL888 (xenograft model) cells were injected into athymic nude mice; M1 or 4195 tumors (TNBC PDX models) were propagated in SCID mice; and E0771, LLC1, or B16F10 cells (syngeneic models) were injected into C57BL/6 mice. Once tumors reached ˜100 mm^3, ELANE (11.6 μg), or PMSF-ELANE (11.6 μg) were delivered intratumorally once/day for 5 days. Tumors were isolated on day 6, formalin fixed, and examined by immunohistochemistry or immunofluorescence staining for TUNEL, cleaved-PARP (cPARP), and cleaved CASP3 (cCASP3). Images were taken under 40×. (FIG. 16B) Tumor sections were stained with N-terminal (N-CD95) and C-terminal (C-CD95) specific anti-CD95 antibodies, followed by secondary antibody staining (Alex fluor 488 and 594 for C-CD95 and N-CD95 respectively). Fluorescence intensity quantification was performed on 3-4 areas/mouse.

human blood Tcells = test: Apoptosis of human blood T cells in vitro; format: cell-based
Description: The efficiency by which these proteases cleaved CD95 was well correlated with their ability to kill cancer cells. Thus, targeting CD95 for degradation offers three important advantages over the FASL and siRNA/shRNA approaches described above. First, unlike the resistance reported with FASL, the inventors have shown that cancer cells are incapable of becoming resistant to this degradative pathway in vitro and in vivo. […] In fact, when tumor bearing mice were treated with ELANE, tumor and splenic T-cells numbers were elevated.

Healthy non-cancer cells = test: Killing program signaling in non-cancer cells; format: cell-based, Human and mouse; details: 50 nM
Description: (FIG. 11A) Healthy non-cancer cells were treated with ELANE (50 nM) for 4 hrs, and phosphorylated and total ERK, NFKB, and JNK were quantified by immunoblotting. Immunoblots for BMDMs are shown as an example. (FIG. 11B) Cells were treated with various doses of ELANE for 1 hr and mitochondrial ROS was measured by flow cytometry using CM-H2DCFDA dye. (FIG. 11C) Cells were treated with ELANE (50 nM) for 8 hrs, and full length and cleaved CASP3 (c-CASP3) and cleaved PARP (c-PARP) were quantified by immnoblotting. Immunoblots for BMDMs are shown as an example.
The ELANE-induced killing program is not observed in non-cancer cells. Human and mouse non-cancer cells were treated with ELANE and signaling pathways associated with cancer cell death were assessed. Cells were treated with ELANE (50 nM) for 4 hrs, and phosphorylated and total ERK, NFKB, and JNK were quantified by western blotting. Cells were treated with various doses of ELANE for 1 hr and mitochondrial ROS was measured by flow cytometry using CM-H2DCFDA dye. Cells were treated with ELANE (50 nM) for 8 hrs, and full length and cleaved CASP3 and PARP were quantified by western blotting.

[1] = test system: Human or murine cancer cells; test: Cancer cell viability and apoptosis (Calcein AM, Caspase 3/7, Annexin V); format: cell-based; details: 50 nM; 24 hrs viability, 6 hrs apoptosis
Description: Human PMN'S broadly and selectively kill cancer cells. Human peripheral blood neutrophils (PMN) were isolated from healthy donors and incubated in serum-free DMEM to collect their secreted factors (PMN-media). (A-B) Human or murine cancer cells (A) or healthy cells (b) were incubated with PMN media or control serum-free DMEM (Ctrl media) for 24 hours. Cell viability was assessed by Calcein AM staining. (C) Human or murine cancer cells were treated with PMN media or Ctrl media for 6 hours. Caspase 3/7 activity was examined by a luminescence activity assay, while cell surface Annexin V staining was assessed by flow cytometry. […] (FIG. 1).
(FIG. 6A) Cancer cells or healthy cells were treated with 50 nM purified native ELANE or control DMEM media (Ctrl) media for 24 hrs, and cell viability was assessed by Calcein AM staining. (FIG. 6B) Cancer cells were treated with 50 nM ELANE or Ctrl media for 6 hrs, and apoptosis was assessed by Caspase 3/7 luminesce activity assay or cell surface Annexin V staining by flow cytometry. *, p<0.05, Student's t-test.

B1: neutrophil elastase (protein, listed as Homo sapiens)
chain: MTLGRRLACLFLACVLPALLLGGTALASEIVGGRRARPHAWPFMVSLQLRGGHFCGATLIAPNFVMSAAHCVANVNVRAVRVVLGAHNLSRREPTRQVFAVQRIFENGYDPVNLLNDIVILQLNGSATINANVQVAQLPAQGRRLGNGVQCLAMGWGLLGRNRGIASVLQELNVTVVTSLCRRSNVCTLVRGRQAGVCFGDSGSPLVCNGLIHGIASFVRGGCASGLYPDAFAPVAQFVNWIDSIIQRSEDNPCPHPRDPDPASRTH
notes: purified native ELANE
C-CD95 levels in tumors (tumors; 11.6 μg intratumorally once/day for 5 days, day 6): attenuates C-CD95 levels in vivo
apoptosis in tumors (tumors; intratumoral delivery, mouse cancer models): induces cancer cell apoptosis; also recorded: induced widespread apoptosis
apoptosis of human blood T cells (human blood Tcells): did not induce apoptosis in vitro
killing program in healthy non-cancer cells (Healthy non-cancer cells): does not induce a robust killing program in healthy non-cancer cells
cancer cell killing and apoptosis [1]: selectively kill cancer cells by inducing apoptosis
